The assay has as its target T1, Paeniclostridium sordellii lethal toxin TcsL, receptor binding domain (RBD) (Paeniclostridium sordellii, UniProt Q46342).
T1 sequence: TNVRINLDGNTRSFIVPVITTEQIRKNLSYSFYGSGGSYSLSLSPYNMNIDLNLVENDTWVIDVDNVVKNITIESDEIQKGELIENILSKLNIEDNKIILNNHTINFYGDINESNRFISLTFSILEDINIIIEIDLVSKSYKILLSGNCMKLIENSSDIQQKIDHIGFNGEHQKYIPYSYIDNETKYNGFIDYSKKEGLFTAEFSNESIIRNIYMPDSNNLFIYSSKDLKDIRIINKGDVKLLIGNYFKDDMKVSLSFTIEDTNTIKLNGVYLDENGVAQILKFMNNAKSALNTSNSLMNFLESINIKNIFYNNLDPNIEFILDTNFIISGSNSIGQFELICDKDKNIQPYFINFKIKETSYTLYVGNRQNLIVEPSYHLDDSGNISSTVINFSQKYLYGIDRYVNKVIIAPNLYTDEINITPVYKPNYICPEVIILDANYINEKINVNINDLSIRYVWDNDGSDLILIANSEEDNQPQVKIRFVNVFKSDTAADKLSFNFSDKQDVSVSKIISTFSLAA
The assay is described as follows: SPR. On the technique in general: In SPR one partner is held on a chip, and binding of the other changes the refractive index at the surface.

B1: B4, ProteinMPNN-optimized de novo designed TcsL-binding miniprotein (designed binder)
chain: MSGTEEIIKEIKKMKEKGEKASSIIDLLKKAGYSEIAKKAELAALKSENMTEAAAEKAIEELK
In general, Kd refers to a measure of binding affinity in units of concentration. Read a high Kd as weaker binding. On to B1, for which the affinity, expressed as Kd, was 57 pM.
